Laboratory results reported in PMC9482650, “Quantitative fragmentomics allow affinity mapping of interactomes” (Nature Communications, 2022).

Experiments:
Experiment in all cases: holdup assay
Design in all cases: key: below the threshold = too weak to quantify, mostly under pKd 3.1 to 4
APBA3_1, O96018 = target: T1, APBA3_1, O96018
T1 sequence (O96018 389-490, limits assumed, looked up): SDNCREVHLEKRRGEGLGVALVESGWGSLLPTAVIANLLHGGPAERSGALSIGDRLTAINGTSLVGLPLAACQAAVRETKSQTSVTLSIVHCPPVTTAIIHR

ARHGEF11, O15085 = target: T2, ARHGEF11, O15085
T2 sequence (O15085 42-136, limits assumed, looked up): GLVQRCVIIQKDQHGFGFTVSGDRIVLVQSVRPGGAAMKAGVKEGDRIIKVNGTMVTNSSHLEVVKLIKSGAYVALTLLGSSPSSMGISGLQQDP

DFNB31_1, Q9P202 = target: T3, DFNB31_1, Q9P202
T3 sequence (Q9P202 135-233, limits assumed, looked up): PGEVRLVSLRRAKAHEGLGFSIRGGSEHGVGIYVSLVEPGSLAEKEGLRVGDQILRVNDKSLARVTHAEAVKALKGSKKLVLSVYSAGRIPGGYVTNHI

DLG3_1, Q92796 = target: T4, DLG3_1, Q92796
T4 sequence (Q92796 125-227, limits assumed, looked up): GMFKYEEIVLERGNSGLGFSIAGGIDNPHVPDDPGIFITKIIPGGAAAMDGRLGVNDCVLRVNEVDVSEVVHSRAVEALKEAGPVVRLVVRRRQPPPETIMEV

DLG4_2, P78352 = target: DLG4_2, P78352
FRMPD3, Q5JV73 = target: FRMPD3, Q5JV73
GRID2IP_2, A4D2P6 = target: GRID2IP_2, A4D2P6
GRIP1_4, Q9Y3R0 = target: T5, GRIP1_4, Q9Y3R0
T5 sequence (Q9Y3R0 467-571, limits assumed, looked up): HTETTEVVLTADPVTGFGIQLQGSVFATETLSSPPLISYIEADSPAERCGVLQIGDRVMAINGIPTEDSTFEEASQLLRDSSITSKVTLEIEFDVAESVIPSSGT

GRIP2_4, Q9C0E4 = target: GRIP2_4, Q9C0E4
GRIP2_6, Q9C0E4 = target: GRIP2_6, Q9C0E4
HTRA3, P83110 = target: T6, HTRA3, P83110
T6 sequence (P83110 354-453, limits assumed, looked up): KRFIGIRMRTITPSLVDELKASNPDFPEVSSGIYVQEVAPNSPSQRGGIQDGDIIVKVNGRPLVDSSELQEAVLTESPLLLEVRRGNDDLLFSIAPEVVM

IL16_1, Q14005 = target: IL16_1, Q14005
IL16_4, Q14005 = target: IL16_4, Q14005
LNX1_2, Q8TBB1 = target: LNX1_2, Q8TBB1
LNX2_3, Q8N448 = target: T7, LNX2_3, Q8N448
T7 sequence (Q8N448 463-564, limits assumed, looked up): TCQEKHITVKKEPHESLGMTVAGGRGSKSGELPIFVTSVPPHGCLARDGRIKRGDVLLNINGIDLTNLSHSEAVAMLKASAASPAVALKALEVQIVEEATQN

LRRC7, Q96NW7 = target: T8, LRRC7, Q96NW7
T8 sequence (Q96NW7 1440-1537, limits assumed, looked up): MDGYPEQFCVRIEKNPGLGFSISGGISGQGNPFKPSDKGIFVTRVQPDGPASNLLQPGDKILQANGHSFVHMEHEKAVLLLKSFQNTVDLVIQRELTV

MAGI1_1, Q96QZ7 = target: MAGI1_1, Q96QZ7
MAGI3_2, Q5TCQ9 = target: MAGI3_2, Q5TCQ9
MAST2, Q6P0Q8 = target: MAST2, Q6P0Q8
NHERF4_4, Q86UT5 = target: NHERF4_4, Q86UT5
PARD3_3, Q8TEW0 = target: PARD3_3, Q8TEW0
PDZD2_2, O15018 = target: T9, PDZD2_2, O15018
T9 sequence (O15018 329-429, limits assumed, looked up): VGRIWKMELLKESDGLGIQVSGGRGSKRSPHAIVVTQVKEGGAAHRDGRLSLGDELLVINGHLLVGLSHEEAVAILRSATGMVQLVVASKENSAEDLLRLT

PTPN3, P26045 = target: PTPN3, P26045
SCRIB_1, Q14160 = target: SCRIB_1, Q14160
SNX27, Q96L92 = target: SNX27, Q96L92
SYNJ2BP, P57105 = target: T10, SYNJ2BP, P57105
T10 sequence (P57105 8-110, limits assumed, looked up): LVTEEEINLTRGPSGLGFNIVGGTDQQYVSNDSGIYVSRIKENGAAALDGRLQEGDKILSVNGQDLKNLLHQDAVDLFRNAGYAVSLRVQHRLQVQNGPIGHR

TJP2_1, Q9UDY2 = target: TJP2_1, Q9UDY2
[1] = plain residues with an end cap or a label only (N-terminal biotin on a linker: none)
[2] = plain residues with an end cap or a label only (N-terminal biotin on a linker: ttds)
[3] = plain residues with an end cap or a label only (N-terminal biotin on a linker: ado-ado)

Sequence of GRIP2_6, Q9C0E4 (Q9C0E4 648-740): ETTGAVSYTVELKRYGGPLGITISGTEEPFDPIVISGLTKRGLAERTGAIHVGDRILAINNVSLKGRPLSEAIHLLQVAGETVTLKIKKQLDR
Sequence of LNX1_2, Q8TBB1 (Q8TBB1 371-470): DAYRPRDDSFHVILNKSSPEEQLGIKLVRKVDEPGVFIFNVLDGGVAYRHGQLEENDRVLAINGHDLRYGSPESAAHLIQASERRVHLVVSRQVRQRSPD
Sequence of MAGI1_1, Q96QZ7 (Q96QZ7 1-106): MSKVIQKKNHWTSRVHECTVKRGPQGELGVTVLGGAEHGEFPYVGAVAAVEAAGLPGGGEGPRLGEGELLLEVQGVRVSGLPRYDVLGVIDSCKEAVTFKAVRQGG
Sequence of GRIP2_4, Q9C0E4 (Q9C0E4 446-548): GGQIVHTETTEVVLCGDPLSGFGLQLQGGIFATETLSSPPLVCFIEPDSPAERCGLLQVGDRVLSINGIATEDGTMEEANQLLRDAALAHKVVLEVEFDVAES
Sequence of TJP2_1, Q9UDY2 (Q9UDY2 24-128): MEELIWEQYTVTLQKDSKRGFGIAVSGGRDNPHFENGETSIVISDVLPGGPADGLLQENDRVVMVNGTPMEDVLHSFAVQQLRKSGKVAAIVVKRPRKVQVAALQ
Sequence of MAST2, Q6P0Q8 (Q6P0Q8 1099-1202): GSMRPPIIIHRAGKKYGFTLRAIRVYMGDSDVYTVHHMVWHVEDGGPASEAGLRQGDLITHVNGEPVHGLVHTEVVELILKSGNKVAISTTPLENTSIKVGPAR
Sequence of IL16_1, Q14005 (Q14005 210-306): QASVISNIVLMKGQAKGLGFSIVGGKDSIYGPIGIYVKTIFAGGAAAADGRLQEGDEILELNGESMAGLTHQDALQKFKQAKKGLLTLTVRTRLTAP
Sequence of PTPN3, P26045 (P26045 505-587): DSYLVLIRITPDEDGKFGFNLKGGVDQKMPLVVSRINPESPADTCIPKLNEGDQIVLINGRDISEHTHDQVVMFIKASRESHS
Sequence of IL16_4, Q14005 (Q14005 1229-1329): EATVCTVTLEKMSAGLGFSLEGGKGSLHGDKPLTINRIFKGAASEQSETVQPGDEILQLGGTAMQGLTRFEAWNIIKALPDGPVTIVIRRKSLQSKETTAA
Sequence of SCRIB_1, Q14160 (Q14160 718-814): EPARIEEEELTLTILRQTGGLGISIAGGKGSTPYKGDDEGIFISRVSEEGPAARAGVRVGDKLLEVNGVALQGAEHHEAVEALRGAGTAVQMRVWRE
Sequence of PARD3_3, Q8TEW0 (Q8TEW0 582-685): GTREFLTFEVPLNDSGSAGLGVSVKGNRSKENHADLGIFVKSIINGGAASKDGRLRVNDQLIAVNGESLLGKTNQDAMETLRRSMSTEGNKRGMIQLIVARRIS
Sequence of MAGI3_2, Q5TCQ9 (Q5TCQ9 398-503): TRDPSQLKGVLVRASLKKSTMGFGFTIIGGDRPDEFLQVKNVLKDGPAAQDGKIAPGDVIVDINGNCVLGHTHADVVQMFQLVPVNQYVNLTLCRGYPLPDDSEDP
Sequence of NHERF4_4, Q86UT5 (Q86UT5 464-550): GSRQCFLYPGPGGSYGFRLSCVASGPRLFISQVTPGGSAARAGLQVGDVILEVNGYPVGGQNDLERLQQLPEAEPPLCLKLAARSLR
Sequence of FRMPD3, Q5JV73 (Q5JV73 12-100): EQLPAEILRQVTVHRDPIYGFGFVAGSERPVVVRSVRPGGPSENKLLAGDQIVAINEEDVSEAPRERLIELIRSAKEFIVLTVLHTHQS
Sequence of DLG4_2, P78352 (P78352 155-259): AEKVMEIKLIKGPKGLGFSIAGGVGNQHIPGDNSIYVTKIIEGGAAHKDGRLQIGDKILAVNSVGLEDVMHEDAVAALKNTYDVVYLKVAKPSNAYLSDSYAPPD
Sequence of GRID2IP_2, A4D2P6 (A4D2P6 272-370): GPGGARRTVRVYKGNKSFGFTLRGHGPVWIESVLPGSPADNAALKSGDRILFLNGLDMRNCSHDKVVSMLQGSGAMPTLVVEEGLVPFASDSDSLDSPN

DSKPPLPPDEWV [MERS-E, K9N5R3]
pKd (APBA3_1, O96018; [1]): 3.65 | pKd (ARHGEF11, O15085; [1]): 3.91 | pKd (DFNB31_1, Q9P202; [1]): 3.61 | pKd (DLG3_1, Q92796; [1]): below the threshold | pKd (DLG4_2, P78352; [1]): 3.59 | pKd (FRMPD3, Q5JV73; [1]): 4.17 | pKd (GRID2IP_2, A4D2P6; [1]): 3.53 | pKd (GRIP1_4, Q9Y3R0; [1]): below the threshold | pKd (GRIP2_4, Q9C0E4; [1]): below the threshold | pKd (GRIP2_6, Q9C0E4; [1]): below the threshold | pKd (HTRA3, P83110; [1]): 5.66 | pKd (IL16_1, Q14005; [1]): 3.64 | pKd (IL16_4, Q14005; [1]): below the threshold | pKd (LNX1_2, Q8TBB1; [1]): below the threshold | pKd (LNX2_3, Q8N448; [1]): below the threshold | pKd (LRRC7, Q96NW7; [1]): 4.4 | pKd (MAGI1_1, Q96QZ7; [1]): below the threshold | pKd (MAGI3_2, Q5TCQ9; [1]): below the threshold | pKd (MAST2, Q6P0Q8; [1]): 3.66 | pKd (NHERF4_4, Q86UT5; [1]): below the threshold | pKd (PARD3_3, Q8TEW0; [1]): 4.07 | pKd (PDZD2_2, O15018; [1]): 5.11 | pKd (PTPN3, P26045; [1]): 3.87 | pKd (SCRIB_1, Q14160; [1]): 4.52 | pKd (SNX27, Q96L92; [1]): 4.56 | pKd (SYNJ2BP, P57105; [1]): 3.73 | pKd (TJP2_1, Q9UDY2; [1]): 3.84

HRTCYLVTQL [ASIC3, Q9UHC3]
pKd (APBA3_1, O96018; [2]): below the threshold | pKd (ARHGEF11, O15085; [2]): 4.83 | pKd (DFNB31_1, Q9P202; [2]): 3.67 | pKd (DLG3_1, Q92796; [2]): 3.34 | pKd (DLG4_2, P78352; [2]): 3.97 | pKd (FRMPD3, Q5JV73; [2]): 3.53 | pKd (GRID2IP_2, A4D2P6; [2]): 4.56 | pKd (GRIP1_4, Q9Y3R0; [2]): below the threshold | pKd (GRIP2_4, Q9C0E4; [2]): below the threshold | pKd (GRIP2_6, Q9C0E4; [2]): 3.22 | pKd (HTRA3, P83110; [2]): 3.43 | pKd (IL16_1, Q14005; [2]): below the threshold | pKd (IL16_4, Q14005; [2]): 3.21 | pKd (LNX1_2, Q8TBB1; [2]): 3.46 | pKd (LNX2_3, Q8N448; [2]): below the threshold | pKd (LRRC7, Q96NW7; [2]): 4.04 | pKd (MAGI1_1, Q96QZ7; [2]): 3.5 | pKd (MAGI3_2, Q5TCQ9; [2]): 4.3 | pKd (MAST2, Q6P0Q8; [2]): 5.24 | pKd (NHERF4_4, Q86UT5; [2]): 3.45 | pKd (PARD3_3, Q8TEW0; [2]): 3.76 | pKd (PDZD2_2, O15018; [2]): 3.37 | pKd (PTPN3, P26045; [2]): 4.48 | pKd (SCRIB_1, Q14160; [2]): 5.54 | pKd (SNX27, Q96L92; [2]): 5.11 | pKd (SYNJ2BP, P57105; [2]): 4.72 | pKd (TJP2_1, Q9UDY2; [2]): 3.89

TGDTLEKFVEGL [CBP, Q92793]
pKd (APBA3_1, O96018; [2]): below the threshold | pKd (ARHGEF11, O15085; [2]): below the threshold | pKd (DFNB31_1, Q9P202; [2]): below the threshold | pKd (DLG3_1, Q92796; [2]): below the threshold | pKd (DLG4_2, P78352; [2]): below the threshold | pKd (FRMPD3, Q5JV73; [2]): below the threshold | pKd (GRID2IP_2, A4D2P6; [2]): below the threshold | pKd (GRIP1_4, Q9Y3R0; [2]): below the threshold | pKd (GRIP2_4, Q9C0E4; [2]): below the threshold | pKd (GRIP2_6, Q9C0E4; [2]): below the threshold | pKd (HTRA3, P83110; [2]): below the threshold | pKd (IL16_1, Q14005; [2]): below the threshold | pKd (IL16_4, Q14005; [2]): below the threshold | pKd (LNX1_2, Q8TBB1; [2]): below the threshold | pKd (LNX2_3, Q8N448; [2]): below the threshold | pKd (LRRC7, Q96NW7; [2]): below the threshold | pKd (MAGI1_1, Q96QZ7; [2]): below the threshold | pKd (MAGI3_2, Q5TCQ9; [2]): below the threshold | pKd (MAST2, Q6P0Q8; [2]): below the threshold | pKd (NHERF4_4, Q86UT5; [2]): below the threshold | pKd (PARD3_3, Q8TEW0; [2]): below the threshold | pKd (PDZD2_2, O15018; [2]): below the threshold | pKd (PTPN3, P26045; [2]): below the threshold | pKd (SCRIB_1, Q14160; [2]): below the threshold | pKd (SNX27, Q96L92; [2]): below the threshold | pKd (SYNJ2BP, P57105; [2]): 3.55 | pKd (TJP2_1, Q9UDY2; [2]): below the threshold

LHLHGTGIQV [EPHA7, Q15375]
pKd (APBA3_1, O96018; [3]): below the threshold | pKd (ARHGEF11, O15085; [3]): 4.51 | pKd (DFNB31_1, Q9P202; [3]): 3.53 | pKd (DLG3_1, Q92796; [3]): below the threshold | pKd (DLG4_2, P78352; [3]): 3.75 | pKd (FRMPD3, Q5JV73; [3]): 3.5 | pKd (GRID2IP_2, A4D2P6; [3]): below the threshold | pKd (GRIP1_4, Q9Y3R0; [3]): below the threshold | pKd (GRIP2_4, Q9C0E4; [3]): below the threshold | pKd (GRIP2_6, Q9C0E4; [3]): 3.81 | pKd (HTRA3, P83110; [3]): 3.58 | pKd (IL16_1, Q14005; [3]): below the threshold | pKd (IL16_4, Q14005; [3]): below the threshold | pKd (LNX1_2, Q8TBB1; [3]): 4.37 | pKd (LNX2_3, Q8N448; [3]): 3.47 | pKd (LRRC7, Q96NW7; [3]): below the threshold | pKd (MAGI1_1, Q96QZ7; [3]): 3.59 | pKd (MAGI3_2, Q5TCQ9; [3]): 3.55 | pKd (MAST2, Q6P0Q8; [3]): 4.63 | pKd (NHERF4_4, Q86UT5; [3]): 4.07 | pKd (PARD3_3, Q8TEW0; [3]): 3.64 | pKd (PDZD2_2, O15018; [3]): below the threshold | pKd (PTPN3, P26045; [3]): 4.06 | pKd (SCRIB_1, Q14160; [3]): below the threshold | pKd (SNX27, Q96L92; [3]): 3.53 | pKd (SYNJ2BP, P57105; [3]): 3.7 | pKd (TJP2_1, Q9UDY2; [3]): below the threshold
